# In publication PMC4388676 (PLoS ONE, 2015):
# Entries after “also recorded” stand apart in the source; their conditions may differ. Bridge positions count the residues as written; N and C are the ends. Square brackets hold non-standard residues; d marks the D form. Ends that are not written are not given here. Peptide text beside a SMILES is read from it. * marks the point of attachment. FITC = O=C1OC2(c3ccc(O)cc3Oc3cc(O)ccc32)c2ccc(NC(=S)*)cc21; S5 = C=CCCC[C@](C)(N)C(=O)O
# T1: KCTD11^BTB (Homo sapiens, UniProt Q693B1)
# T1 construct: tetrameric BTB domain of KCTD11^BTB (residues 15–116) was generated; thioredoxin A (TrxA); made in house
# T1 sequence (Q693B1 15-116 isoform Q693B1-2): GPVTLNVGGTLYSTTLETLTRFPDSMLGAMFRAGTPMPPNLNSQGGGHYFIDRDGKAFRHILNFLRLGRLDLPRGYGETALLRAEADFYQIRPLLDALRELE
# T2: His-TrxA-KCTD11^BTB (UniProt Q693B1-2 15-116)
# T2 construct: KCTD11, folded BTB region of the long form (isoform 2, UniProt Q693B1-2); residues 15-116 are stated for KCTD11^BTB in the modelling paragraph; numbers count on: the long form (isoform 2); The tags are named and used for detection in the ELISA; also called recombinant KCTD11^BTB; BTB of the tetrameric KCTD11; source: recombinant fusion protein with thioredoxin A, expressed and purified as …
# T2 sequence (looked up): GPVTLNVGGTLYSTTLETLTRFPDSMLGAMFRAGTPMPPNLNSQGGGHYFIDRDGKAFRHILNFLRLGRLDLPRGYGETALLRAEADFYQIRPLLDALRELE
# How the values were obtained:
# [1] = Serum stability followed by LC-MS; type: in vitro ADME; conditions: 25% human serum, 37°C, peptide 0.3 μM, time points 0, 60, 120, 180, 360 and 900 min, TFA precipitation, LC-MS read-out, triplicate
# Protocol: Human serum (Sigma Aldrich-Italy) was centrifuged at 13000 rpm for 10 min to remove lipids;the supernatant was collected and incubated at 37°C for at least 15 min. The assay started upon the addition of the peptides to the 25% serum for a final peptide concentration of 0.3 μM.
# 200 μL aliquots of the samples were taken after the following time points: 0, 60, 120, 180, 360 and 900 min. The aliquots were mixed with 100 μL of 15% TFA and incubated at 4°C for at least 15 min to induce the precipitation of the serum proteins. The supernatants were collected for each sample after centrifugation at 13000 rpm for 10 min and stored at -20°C.
# The serum stability of peptides was followed by LC-MS analysis. using a Phenomenex Jupiter C4 (150 × 2 mm; 5 μm; 300 Å) and a method consisting of an isocratic step with H2O (0.1% TFA)/CH3CN (0.1% TFA) (70:30) for 10 min and a linear gradient of H2O (0.1% TFA)/CH3CN (0.1% TFA) from 30 to 80% of CH3CN (0.1% TFA) in 20 min at flow rate of 200 μL/min.
# The assays were performed in triplicate.
# [2] = Human serum (Sigma Aldrich-Italy), 25% serum; conditions: 37°C, up to 900 min
# KCTD11^BTB = target: T1, KCTD11^BTB; test: ELISA binding of biotinylated peptides to His-TrxA-KCTD11^BTB; conditions: 0.8 μM biotinylated peptide on streptavidin-coated wells; His-TrxA-KCTD11^BTB 0.4-15.6 μM in PBS; anti-His/HRP read at 490 nm; mean of triplicate experiments
# Protocol: For ELISA assays, 5 μg/mL streptavidin in phosphate/citrate buffer pH 5.0 was incubated overnight at 37°C for coating. Firstly, wells were coated with 0.8 μM biotinylated Cul3^49-68 peptides in phosphate buffered saline (PBS) 1X for 1 h at room temperature. Binding step was performed with increasing concentrations (0.4, 0.75, 1.5, 3.8, 7.6 and 15.6 μM) of His-TrxA- KCTD11^BTB in PBS 1X. His-TrxA was used as negative control in the same concentrations. As blocking solution 3% gelatine, 0.05% Tween-20 in PBS 1X was used for 1 h at 37°C. Washes were executed with PBS 1X. To reveal the occurred interaction mouse anti-His monoclonal antibody was incubated in 1:1000 dilution at room temperature for 2 h; then, horseradish peroxidase-conjugated anti-mouse antibody (Pierce) was diluted 1:10000 in 1% gelatin, PBS 1X and incubated at 20°C for 1 h. The colorimetric reaction has been carried out with SIGMAFAST OPD reagent (Sigma Aldrich), according to the manufacturer’s instructions. Finally, a Model 680 Microplate Reader (Bio-Rad, Hercules, CA-USA) has been used for readings at 490 nm; data were processed by a Microplate Manager 5.2 program. The reported data are mean values of triplicate experiments.
# KCTD5^BTB = target: T3, KCTD5^BTB (UniProt Q9NXV2 44-145); test: fluorescence polarisation; 1 uM FITC-Cul3^49-68LA, KCTD5^BTB over 0.1 nM to 5 uM; triplicates; conditions: both partners purified
# T3 construct: KCTD5, folded BTB domain, residues 44-145; also called BTB of the pentameric KCTD5; pentameric KCTD5^BTB; source: recombinant from the pET28/KCTD5^BTB plasmid, expressed and purified as elsewhere reported [33, 34]
# T3 sequence (Q9NXV2 44-145): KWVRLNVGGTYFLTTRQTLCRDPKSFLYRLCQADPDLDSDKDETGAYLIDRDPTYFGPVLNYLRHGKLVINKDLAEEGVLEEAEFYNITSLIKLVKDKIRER
# His-TrxA-KCTD11^BTB = target: T2, His-TrxA-KCTD11^BTB; test: fluorescence polarisation; 2 uM FITC-peptide, KCTD11^BTB added at increasing concentration (0.1-15 uM in the methods; 0.1 nM to 20 uM in the legend); KCTD11^BTB concentration as monomer; triplicates; conditions: both partners purified
molecule,measurement,setting,value
CSCC[C@H](NC(=O)[C@@H](NC(=O)[C@H](Cc1ccc(O)cc1)NC(=O)[C@H](C)NC(=O)[C@H](CC(N)=O)NC(=O)[C@H](CCCNC(=N)N)NC(=O)[C@H](Cc1ccc(O)cc1)NC(=O)[C@]1(C)CCCC=CCCC[C@](C)(NC(=O)[C@H](CC(C)C)NC(=O)CNC(=O)[C@H](CO)NC(=O)[C@H](CC(N)=O)NC(C)=O)C(=O)N[C@@H](Cc2ccccc2)C(=O)N[C@@H](CCC(=O)O)C(=O)N[C@@H](CCC(=O)O)C(=O)N1)[C@@H](C)O)C(=O)N[C@H](C(=O)N[C@@H](CC(C)C)C(=O)N[C@@H](Cc1c[nH]cn1)C(=O)N[C@@H](CCCCN)C(N)=O)C(C)C [Cul3^49-68SL] (Ac-NSGL[S5]FEE[S5]YRNAYTMVLHK-NH2; staple 5-9),Estimate t1/2 in serum,[1],~7 h
Ac-NSGLSFEELYRNAYTMVLHK-NH2,cleaved bond,[2],"Tyr58-Arg59, major"
same,fragment found,[2],NAYTMVLHK-NH 2; also recorded: Ac-NSGLSFEELYR
Ac-NSGLSFEELYRNAYTMVLHK-NH2 [Cul3^49-68],half-life at 0.3 μM,[1]; read-out: Estimate t1/2 in serum (converted),7 h
Cul3^49-68AA: non-stapled variant of Cul3^49-68 in which Tyr58 and Tyr62 were replaced with Ala residues (NSGLSFEELARNAATMVLHK-NH2; not fully specified (N-terminus)),"Binding to recombinant KCTD11^BTB, qualitatively checked by ELISA",KCTD11^BTB,No relevant binding; also recorded: completely unable to bind KCTD11^BTB
{FITC}-NSGLSFEE[S5]YRN[S5]YTMVLHK-NH2 (staple 9-13) [FITC-Cul3^49-68LA],Kd,KCTD5^BTB,97 nM
same,Kd,His-TrxA-KCTD11^BTB,305 nM
{FITC}-NSGLSFE[S5]LYR[S5]AYTMVLHK-NH2 (staple 8-12) [FITC-Cul3^49-68EN],Kd,His-TrxA-KCTD11^BTB,620 nM
"{FITC}-NSGLSFEELYRNAYTMVLHK-NH2 (Cullin 3 (Cul3), first part of the peptide 49-68; Cullin 3 (Cul3), second part of the peptide 49-68; also called wild-type peptide; source: synthetic peptide (solid phase, Fmoc), RP-HPLC purified) [FITC-Cul3^49-68]",Kd,His-TrxA-KCTD11^BTB,497 nM
